Experimental data reported in US20230090014A1 (NANJING SANHOME PHARMACEUTICAL, published 2023).
Read-outs that look alike come from different tables or passages of the source.

Columns and labels:
[1] = target: T1, CD47 on the surface of CHO-K1-E5 cells (human, UniProt Q08722 19-323); test: FACS on CHO-K1-hCD47 cells, PE anti-human IgG
T1 construct: Full length CD47 expressed from pTargeT-CD47 in CHO-K1 cells; also called CD47 on cell surface; CHO-K1-hCD47

[2] = target: T1, CD47 on the surface of CHO-K1-E5 cells; test: FACS blocking assay on CHO-K1-E5 cells; blocked ligand SIRPα-Biotin, PE streptavidin
[3] = target: T1, CD47 on the surface of CHO-K1-E5 cells; test: FACS blocking assay on CHO-K1-hCD47 cells; blocked ligand SIRPα-biotin, PE-SA
CD47(19-136)-hFc = target: T2, CD47(19-136)-hFc (human, biotin-labelled in the Octet assay of Example 8 (sites not given)); test: BLI (Fortebio Octet RED96), biotinylated CD47-hFc on SA sensor, antibody in solution
T2 construct: tied by name; also called CD47-hFc; CD47-hFc-Biotin
T2 sequence (chain, as listed by the source limits assumed): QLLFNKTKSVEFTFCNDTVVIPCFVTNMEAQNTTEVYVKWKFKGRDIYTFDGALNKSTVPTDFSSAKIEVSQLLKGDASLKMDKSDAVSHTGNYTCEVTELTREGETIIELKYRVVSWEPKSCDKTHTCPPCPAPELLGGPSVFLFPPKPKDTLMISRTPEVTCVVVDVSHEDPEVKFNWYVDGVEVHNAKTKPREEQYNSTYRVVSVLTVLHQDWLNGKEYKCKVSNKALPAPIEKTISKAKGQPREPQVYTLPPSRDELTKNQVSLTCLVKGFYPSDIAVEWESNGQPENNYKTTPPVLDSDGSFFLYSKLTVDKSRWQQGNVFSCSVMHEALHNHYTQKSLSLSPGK

Human CD47-His protein [4] = target: T3, Human CD47-His protein (human, UniProt Q08722 19-136); test: competition ELISA on coated CD47-His; blocked ligand SIRPα-biotin (2 µg/mL), SA-HRP, OD450
[5] = target: T4, hCD47 on the surface of Raji-hPD-L1 cells (human, UniProt Q08722 19-323); test: FACS on Raji-hPD-L1 cells (carry both hPD-L1 and hCD47), PE anti-human IgG Fc
T4 construct: whole, on cells

[6] = target: T4, hCD47 on the surface of Raji-hPD-L1 …; test: as above; remark: listed apart in the source
Cynomolgus CD47-His = target: T5, Cynomolgus CD47-His (cynomolgus, UniProt A0A2K5X523 19-139); test: ELISA on coated cynomolgus CD47-His, anti-human IgG HRP, OD450
T5 construct: Bought protein; also called monkey CD47

Human CD47-His protein [7] = target: T3, Human CD47-His protein; test: ELISA on coated human CD47-His, HRP anti-human IgG, OD450
Human CD47-His protein [8] = target: T3, Human CD47-His protein; test: ELISA on coated human CD47-His, anti-human IgG HRP, OD450
[9] = target: T1, CD47 on the surface of CHO-K1-E5 cells; test: cell based ELISA on fixed CHO-K1-E5 cells, anti-human IgG HRP, OD450

- EC50 (read off the curve) [1]: ~1 nM
- IC50 (read off the curve) [2]: ~1 nM
- IC50 (read off the curve) [3]: ~2 nM
- Kd (CD47(19-136)-hFc): 0.113 nM
- koff (CD47(19-136)-hFc): 0.000758 s⁻¹
- kon (CD47(19-136)-hFc): 6.69e+06 M⁻¹ s⁻¹
- IC50 (read off the curve) (Human CD47-His protein [4]): ~100 nM
- EC50 (read off the curve) [5]: ~0.2 nM
- EC50 (read off the curve) [6]: ~0.1 nM
- EC50 (read off the curve) (Cynomolgus CD47-His): ~0.1 nM
- EC50 (read off the curve) (Human CD47-His protein [7]): ~60 nM
- EC50 (read off the curve) (Human CD47-His protein [8]): ~0.08 nM
- EC50 (read off the curve) [9]: ~0.1 nM
B1: Hu34-39-PE (antibody, IgG4, V domains shown)
VH: QVQLQESGPGLVKPSQTLSLTCKASGYTFTNYWITWVKQRPGQGLEWIGDITPGRGETNYNQKFKGRVTLTVDISASTAYMELSSLRSEDTAVYYCSRWGLRRGDYWGQGTSVTVSS
VL: EIVLTQSPGTLSLSPGERATLSCRASSSVSSSYLNWYQQKSGASPKLWIYSTSNLASGVPGRFSGSGSGTSYSLTISSVEAEDAATYYCQQYSGYPLTFGAGTKLEVK
notes: also called humanized anti-CD47 antibody Hu34-39-PE
